Source: paper PMC7846786, “DutaFabs are engineered therapeutic Fab fragments that can bind two targets simultaneously” (Nature Communications, 2021)

Columns and labels:
Details in all cases: both partners purified
human VEGFA-121 [1] = target: T1, human VEGFA-121 (Homo sapiens, UniProt P15692); experiment: SPR; affinities of the Fab fragments used in the in-vivo study for human and rat VEGF-A121, expressed as KD (nM); who was immobilised and the conditions not given
T1 construct: homodimer

rat VEGF-A121 = target: T2, rat VEGF-A121 (Rattus norvegicus, UniProt P16612-4, strain); experiment: as above
T2 construct: The homodimer is stated for VEGFA in general

PDGF-BB [2] = target: T3, PDGF-BB (Homo sapiens, UniProt P01127); experiment: kinetic exclusion assay (KinExA); in solution; 4 h pre-incubation of 50 pM DutaFab with 244 fM-4 nM PDGF-BB, or of 100 pM DutaFab with 122 fM-2 nM VEGFA-121; duplicate 1:2 titration series; 25 °C
T3 construct: platelet-derived growth factor subunit B, human, recombinant; homodimer PDGF-BB; as I recall, the commercial protein is the 109-residue mature B chain (residues 82-190 of the precursor); also called recombinant human PDGF-BB; source: 100-13A is printed for crystallization) and from R&D Systems
T3 sequence (P01127 82-190): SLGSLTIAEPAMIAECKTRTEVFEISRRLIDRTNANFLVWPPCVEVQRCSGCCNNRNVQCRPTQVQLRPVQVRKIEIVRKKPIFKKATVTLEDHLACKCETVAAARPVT

human VEGFA-121 [3] = target: T1, human VEGFA-121; experiment: as above
PDGF-BB [4] = target: T3, PDGF-BB; experiment: as above; remark: listed apart in the source
[5] = target: T4, recombinant human VEGFA-121 (Homo sapiens, strain); experiment: ELISA; IC50 competition ELISA: rhVEGFR-1-Fc (1 µg/mL) or rhPDGFRβ-Fc (0.5 µg/mL) coated; ligand (5 pM VEGFA-165, 8 pM VEGFA-121 or 5 pM PDGF-BB) pre-incubated 1.5 h with 1:2 dilutions of Fab in PBS, 0.1% Tween-20, 1% BSA; 10 min on the plate at RT; free ligand detected with biotinylated anti-hVEGF or anti-hPDGF-BB goat IgG; 4-parameter fit
T4 construct: homodimer; Two suppliers are named for different experiments; also called VEGFA dimer; source: bought: Peprotech (catalog number 100-20A; panning, crystallisation); bought: Humanzyme (ELISAs)
T4 chain: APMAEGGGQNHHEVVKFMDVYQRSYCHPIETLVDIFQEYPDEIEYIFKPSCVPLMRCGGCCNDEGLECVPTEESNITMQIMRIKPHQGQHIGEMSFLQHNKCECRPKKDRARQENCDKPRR

[6] = target: T5, recombinant human VEGFA-165 (Homo sapiens, UniProt P15692-4, strain); experiment: as above
T5 construct: homodimer; source: bought: Humanzyme
T5 sequence (P15692 whole entry, looked up, change not shown): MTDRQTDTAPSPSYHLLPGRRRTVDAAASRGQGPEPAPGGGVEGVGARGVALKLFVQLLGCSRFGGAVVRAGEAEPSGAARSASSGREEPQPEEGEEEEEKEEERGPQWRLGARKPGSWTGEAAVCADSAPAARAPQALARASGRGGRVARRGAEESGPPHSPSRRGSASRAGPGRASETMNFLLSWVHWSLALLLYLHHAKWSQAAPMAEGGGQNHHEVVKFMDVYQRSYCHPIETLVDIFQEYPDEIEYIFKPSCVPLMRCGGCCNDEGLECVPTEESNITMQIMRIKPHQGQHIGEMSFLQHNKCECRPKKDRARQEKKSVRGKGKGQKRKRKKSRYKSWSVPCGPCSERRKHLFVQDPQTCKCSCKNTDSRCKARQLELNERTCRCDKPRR

[7] = target: T6, recombinant human PDGF-BB (human, UniProt P01127); experiment: as above
T6 construct: platelet-derived growth factor subunit B, human; homodimer; Two suppliers and two Peprotech catalogue numbers are printed; also called PDGF-BB dimer; source: bought: R&D Systems (ELISAs); bought: Peprotech (catalog number 100-14B for panning; 100-13A printed for crystallisation)
T6 sequence (P01127 82-190): as the sequence (P01127 82-190) above

T1 sequence (P15692 other isoform, or with tags, fused parts or gaps): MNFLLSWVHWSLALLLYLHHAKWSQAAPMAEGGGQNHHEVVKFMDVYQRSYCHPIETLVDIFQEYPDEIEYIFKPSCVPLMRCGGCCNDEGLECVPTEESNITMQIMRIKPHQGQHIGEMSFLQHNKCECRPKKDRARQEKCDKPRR

B1: DutaFab VP mat YHE (Fab, V domains shown)
VH: DLQLVESGGGLVKPGGSLRLSCAADGWWFGYTDMSWVRQAPGKGLEWVGSISYKGGSTYYNTKFIGRFTISRDDDTNTLYLQMNSLRAEDTAVYYCARDDGYFDTWGQGTLVTVSS
VL: AIYMHQEPSSLSASVGDRVTITCHGSYWLSNYLAWYQQKPGKAPKLLIYDGKEREHGVPSRFSGSGSHEDYTLTISSLQPEDFATYYCQQYRYHPYTFGHGTKVEIK
notes: human CH1 constant domain, as the heavy chain of Dm1 (PDB 6T9D, 6T9E); that R108 may be the first residue of the UniProt entry, so it must not be doubled; Co-operativity variant of Dm1; the PDB entries hold the parent VP mat; also called clone VP mat YHE; source: periplasmatic expression in E. coli or HEK Expi293 cells, purified (kappa select, then cation exchange or SEC)
Kd (human VEGFA-121 [1]): 0.005 nM | Kd (rat VEGF-A121): 0.043 nM | Kd (PDGF-BB [2]): 0.00402 nM | Kd (human VEGFA-121 [3]): 0.00323 nM | Kd (PDGF-BB [4]): 0.006 nM

B2: DutaFab clone VP (initial bispecific DutaFab against VEGFA and PDGF-BB) (Fab, V domains shown)
VH: EEQLVESGGGLVQPGGSLRLSCAASGWWFEYTDMSWVRQAPGQGLEWVGSISPSGGSTYYNTNFIGRFTISRDDSKNTLYLQMNSLRDEDTAVYYCARDEGYFDEWGQGTLVTVSS
VL: AIQMTQSPSSLSASVGDRVTITCQASYWLHKYLAWYQQKPGQAPKLLIYDASELEYGVPDRFSGSGSGTDFTLTISSLEPEDFAVYYCQNYRYHPYTFGQGTKLEIK
notes: human VH3 scaffold with CH1; H-side paratope against PDGF-BB; human Vk1 scaffold with Ck; L-side paratope against VEGFA; Bispecific Fab with two paratopes in one Fv; also called DutaFab VP; original bispecific DutaFab VP; source: periplasmic expression in E. coli or HEK Expi293 cells, purified (kappa select, then cation exchange or SEC)
IC50 [5]: 0.894 nM | IC50 [6]: 0.023 nM | IC50 [7]: 21 nM
